Reference: article PMC7982615, “Phase 1 study of telisotuzumab vedotin in Japanese patients with advanced solid tumors” (Cancer Medicine, 2021)

Experiment: Safety and tolerability (TEAEs, DLTs, AESIs) in phase 1 dose-escalation study of teliso‐v
Type: in vivo, human
Protocol: This phase 1, open‐label, dose‐escalation clinical trial was conducted at two sites in Japan (NCT03311477). Enrollment began on November 6, 2017, and the trial was completed on March 4, 2019.
Escalation into the higher dose level proceeded if the first three evaluable patients in the lower dose level completed the first‐cycle (for at least 21 days) safety assessment without experiencing a dose‐limiting toxicity (DLT). DLT evaluations for dose escalation and determination of RP2D were carried out by investigators, study sponsor, and an independent safety monitor. […] No premedication was required. On the basis of confirmed availability of archival tumor tissue at enrollment, patients were retrospectively analyzed for c‐Met expression and MET amplification. c‐Met expression was determined by immunohistochemistry (IHC), and MET amplification was determined by fluorescence in situ hybridization or sequencing of plasma or tumor DNA.
Safety assessments included treatment‐emergent adverse events (TEAEs) graded according to the National Cancer Institute Common Terminology Criteria for Adverse Events version 4.03. TEAEs, vital signs, physical examinations, electrocardiograms, laboratory tests, and ECOG performance status were monitored during the study. Any grade ≥3 study drug‐related nonhematologic toxicity was documented as a DLT, except as follows: grade 3 nausea or vomiting lasting ≤48 hours that was successfully managed with antiemetics; grade 3 diarrhea successfully managed with antidiarrheal; grade 3 constipation lasting ≤7 days; grade 3 acute infusion reaction that resolved to grade ≤1 within 24 hours after the end of dosing; grade 3 and 4 laboratory tests including but not limited to lactate dehydrogenase, alkaline phosphatase, and gamma‐glutamyl transferase that were considered nonclinically significant by the investigator; liver function test abnormalities; grade 3 and 4 electrolyte imbalance unless associated with clinical symptomatology despite supplementation; and grade 3 hyperglycemia that was manageable without hospitalization. The following hematologic toxicities were documented as a DLT: any grade 4 hematologic toxicity (excluding febrile neutropenia or leukopenia lasting for ≤7 days, or lymphopenia); anemia requiring red blood cell transfusion; thrombocytopenia requiring platelet transfusion; grade 3 thrombocytopenia in the presence of grade ≥2 bleeding; and grade ≥3 febrile neutropenia. Toxicity management criteria are described in the Supplementary appendix.
All data were summarized and tabulated by dose cohort. Categoric data were summarized in terms of frequency counts and percentages. Continuous data were summarized using descriptive statistics, including number of observations, mean, standard deviation, median, minimum, and maximum. No formal statistical analysis was performed for efficacy variables, which were all exploratory in nature. ORR was defined as the proportion of patients with a confirmed partial response (PR) or complete response (CR). Duration of response was defined as time from a patient's initial objective response to the first date of disease progression (PD) or death. The overall disease control rate was defined as the proportion of patients with CR, PR, or stable disease (SD). […] PFS was estimated using the Kaplan–Meier method. Efficacy analyses are presented with two‐sided exact 95% binomial CI.

Teliso‐v: antibody‐drug conjugate: anti–c‐Met humanized monoclonal antibody ABT‐700 coupled to monomethyl auristatin E through a valine‐citrulline linker, drug:antibody ratio approximately three
Alanine aminotransferase increased, TEAE regardless of relationship (2.4 mg/kg Q3W, n = 3): 0 n (%) | Alanine aminotransferase increased, TEAE related to teliso‐v (2.4 mg/kg Q3W, n = 3): 0 n (%) | Alopecia, TEAE regardless of relationship (2.4 mg/kg Q3W, n = 3): 0 n (%) | Alopecia, TEAE related to teliso‐v (2.4 mg/kg Q3W, n = 3): 0 n (%) | Anemia, TEAE regardless of relationship (2.4 mg/kg Q3W, n = 3): 1 (33) n (%) | Aspartate aminotransferase increased, TEAE regardless of relationship (2.4 mg/kg Q3W, n = 3): 0 n (%) | Aspartate aminotransferase increased, TEAE related to teliso‐v (2.4 mg/kg Q3W, n = 3): 0 n (%) | Back pain, TEAE regardless of relationship (2.4 mg/kg Q3W, n = 3): 1 (33) n (%) | Constipation, TEAE regardless of relationship (2.4 mg/kg Q3W, n = 3): 0 n (%) | Decreased appetite, TEAE regardless of relationship (2.4 mg/kg Q3W, n = 3): 2 (67) n (%) | Decreased appetite, TEAE related to teliso‐v (2.4 mg/kg Q3W, n = 3): 2 (67) n (%) | Diarrhea, TEAE regardless of relationship (2.4 mg/kg Q3W, n = 3): 1 (33) n (%) | Fatigue, TEAE regardless of relationship (2.4 mg/kg Q3W, n = 3): 1 (33) n (%) | Fatigue, TEAE related to teliso‐v (2.4 mg/kg Q3W, n = 3): 1 (33) n (%) | Hypoalbuminemia, TEAE regardless of relationship (2.4 mg/kg Q3W, n = 3): 0 n (%) | Malaise, TEAE regardless of relationship (2.4 mg/kg Q3W, n = 3): 2 (67) n (%) | Malaise, TEAE related to teliso‐v (2.4 mg/kg Q3W, n = 3): 2 (67) n (%) | Nausea, TEAE regardless of relationship (2.4 mg/kg Q3W, n = 3): 1 (33) n (%) | Nausea, TEAE related to teliso‐v (2.4 mg/kg Q3W, n = 3): 1 (33) n (%) | Neutrophil count decreased, TEAE regardless of relationship (2.4 mg/kg Q3W, n = 3): 0 n (%) | Neutrophil count decreased, TEAE related to teliso‐v (2.4 mg/kg Q3W, n = 3): 0 n (%) | Peripheral neuropathy, TEAE regardless of relationship (2.4 mg/kg Q3W, n = 3): 2 (67) n (%) | Peripheral neuropathy, TEAE related to teliso‐v (2.4 mg/kg Q3W, n = 3): 2 (67) n (%) | Peripheral sensory neuropathy, TEAE regardless of relationship (2.4 mg/kg Q3W, n = 3): 1 (33) n (%) | Peripheral sensory neuropathy, TEAE related to teliso‐v (2.4 mg/kg Q3W, n = 3): 1 (33) n (%) | Punctate keratitis, TEAE regardless of relationship (2.4 mg/kg Q3W, n = 3): 1 (33) n (%) | Punctate keratitis, TEAE related to teliso‐v (2.4 mg/kg Q3W, n = 3): 1 (33) n (%) | Weight decreased, TEAE regardless of relationship (2.4 mg/kg Q3W, n = 3): 1 (33) n (%) | Weight decreased, TEAE related to teliso‐v (2.4 mg/kg Q3W, n = 3): 1 (33) n (%) | White blood cell count decreased, TEAE regardless of relationship (2.4 mg/kg Q3W, n = 3): 0 n (%) | White blood cell count decreased, TEAE related to teliso‐v (2.4 mg/kg Q3W, n = 3): 0 n (%) | Tolerability (2.7 mg/kg Q3 W, Japanese patients): well‐tolerated | Alanine aminotransferase increased, TEAE regardless of relationship (2.7 mg/kg Q3W, n = 6): 2 (33) n (%) | Alanine aminotransferase increased, TEAE related to teliso‐v (2.7 mg/kg Q3W, n = 6): 2 (33) n (%) | Alopecia, TEAE regardless of relationship (2.7 mg/kg Q3W, n = 6): 2 (33) n (%) | Alopecia, TEAE related to teliso‐v (2.7 mg/kg Q3W, n = 6): 2 (33) n (%) | Anemia, TEAE regardless of relationship (2.7 mg/kg Q3W, n = 6): 1 (17) n (%) | Aspartate aminotransferase increased, TEAE regardless of relationship (2.7 mg/kg Q3W, n = 6): 2 (33) n (%) | Aspartate aminotransferase increased, TEAE related to teliso‐v (2.7 mg/kg Q3W, n = 6): 2 (33) n (%) | Back pain, TEAE regardless of relationship (2.7 mg/kg Q3W, n = 6): 1 (17) n (%) | Constipation, TEAE regardless of relationship (2.7 mg/kg Q3W, n = 6): 2 (33) n (%) | Decreased appetite, TEAE regardless of relationship (2.7 mg/kg Q3W, n = 6): 1 (17) n (%) | Decreased appetite, TEAE related to teliso‐v (2.7 mg/kg Q3W, n = 6): 1 (17) n (%) | Diarrhea, TEAE regardless of relationship (2.7 mg/kg Q3W, n = 6): 1 (17) n (%) | Fatigue, TEAE regardless of relationship (2.7 mg/kg Q3W, n = 6): 1 (17) n (%) | Fatigue, TEAE related to teliso‐v (2.7 mg/kg Q3W, n = 6): 1 (17) n (%) | Hypoalbuminemia, TEAE regardless of relationship (2.7 mg/kg Q3W, n = 6): 2 (33) n (%) | Malaise, TEAE regardless of relationship (2.7 mg/kg Q3W, n = 6): 0 n (%) | Malaise, TEAE related to teliso‐v (2.7 mg/kg Q3W, n = 6): 0 n (%) | Nausea, TEAE regardless of relationship (2.7 mg/kg Q3W, n = 6): 2 (33) n (%) | Nausea, TEAE related to teliso‐v (2.7 mg/kg Q3W, n = 6): 2 (33) n (%) | Neutrophil count decreased, TEAE regardless of relationship (2.7 mg/kg Q3W, n = 6): 2 (33) n (%) | Neutrophil count decreased, TEAE related to teliso‐v (2.7 mg/kg Q3W, n = 6): 2 (33) n (%) | Peripheral neuropathy, TEAE regardless of relationship (2.7 mg/kg Q3W, n = 6): 0 n (%) | Peripheral neuropathy, TEAE related to teliso‐v (2.7 mg/kg Q3W, n = 6): 0 n (%) | Peripheral sensory neuropathy, TEAE regardless of relationship (2.7 mg/kg Q3W, n = 6): 3 (50) n (%) | Peripheral sensory neuropathy, TEAE related to teliso‐v (2.7 mg/kg Q3W, n = 6): 3 (50) n (%) | Punctate keratitis, TEAE regardless of relationship (2.7 mg/kg Q3W, n = 6): 1 (17) n (%) | Punctate keratitis, TEAE related to teliso‐v (2.7 mg/kg Q3W, n = 6): 1 (17) n (%) | Weight decreased, TEAE regardless of relationship (2.7 mg/kg Q3W, n = 6): 2 (33) n (%) | Weight decreased, TEAE related to teliso‐v (2.7 mg/kg Q3W, n = 6): 1 (17) n (%) | White blood cell count decreased, TEAE regardless of relationship (2.7 mg/kg Q3W, n = 6): 3 (50) n (%) | White blood cell count decreased, TEAE related to teliso‐v (2.7 mg/kg Q3W, n = 6): 3 (50) n (%)
